This series deals with K6UbKMRC011.

On to USP1 (ubiquitin-specific protease 1), for which the “cleavage by USP1, SDS-PAGE analysis (10 mg/L enzyme, 37 C, 12 hours)” value was “most of the refolded K6UbKMRC011 was cleaved by USP1 and separated into K6Ub and KMRC011”; the “cleavage by ubiquitin cleavage enzymes, SDS-PAGE analysis (10 mg/L enzyme, 37 C, 12 hours)” value is “the refolded K6UbKMRC011 was cleaved by the ubiquitin cleavage enzymes shown in Table 2 and correctly separated into K6Ub and KMRC011”; the “on-column cleavage, amino terminal sequence analysis of the released KMRC011” value is “the USPI clearly cleaved the immediate side of K6Ub of K6UbKMRC011 so that only KMRC011 was separated and purified”.
